The values below come from US20230265151A1, “GIP/GLP1 CO-AGONIST COMPOUNDS” (priority 2020, published 2023).

Residue numbers refer to the chain shown, from its start.

The target of one experiment is T1, human GIP receptor (human, UniProt P48546 22-466).
T1 construct: whole, on cells; also called hGIPR; human glucose-dependent insulinotropic polypeptide receptor
T1 sequence (looked up): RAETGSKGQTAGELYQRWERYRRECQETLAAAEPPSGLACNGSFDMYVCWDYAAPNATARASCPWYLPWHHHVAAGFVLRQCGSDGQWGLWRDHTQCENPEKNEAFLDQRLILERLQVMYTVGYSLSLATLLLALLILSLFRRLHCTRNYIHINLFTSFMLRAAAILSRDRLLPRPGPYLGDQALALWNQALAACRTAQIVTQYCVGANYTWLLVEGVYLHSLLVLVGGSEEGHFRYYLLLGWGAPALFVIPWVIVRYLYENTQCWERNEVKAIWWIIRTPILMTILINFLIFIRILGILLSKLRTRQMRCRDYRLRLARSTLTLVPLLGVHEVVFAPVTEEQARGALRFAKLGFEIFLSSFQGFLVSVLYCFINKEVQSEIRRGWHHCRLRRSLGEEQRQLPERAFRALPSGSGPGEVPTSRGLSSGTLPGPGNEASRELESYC
Kind of experiment: SPA competition vs [125I]-GIP, hGIPR membranes.

The next experiment has as its target T2, human GLP-1 receptor (human, UniProt P43220 24-463).
T2 construct: whole, on cells; also called hGLP-1R; human glucagon-like peptide-1 receptor
The experiment is described as follows: SPA competition vs [125I]-GLP-1, hGLP-1R membranes. In a few lines: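 Kᵢ values are geometric means (SEM) over replicates run on separate days, derived from IC₅₀ of four-parameter curve fits. Buffer: HEPES 25 mM pH 7.4 with CaCl₂ 2.5 mM, MgCl₂ 1 mM, bacitracin 0.1%, TWEEN-20 0.003%, EDTA-free protease inhibitors.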

The next experiment has as its target T3, human glucagon receptor (human, UniProt P47871 26-477).
T3 construct: whole, on cells; also called hGCGR; hGcgR
Kind of experiment: SPA competition vs [125I]-Gcg, hGcgR membranes.

T3 sequence (P47871 26-477): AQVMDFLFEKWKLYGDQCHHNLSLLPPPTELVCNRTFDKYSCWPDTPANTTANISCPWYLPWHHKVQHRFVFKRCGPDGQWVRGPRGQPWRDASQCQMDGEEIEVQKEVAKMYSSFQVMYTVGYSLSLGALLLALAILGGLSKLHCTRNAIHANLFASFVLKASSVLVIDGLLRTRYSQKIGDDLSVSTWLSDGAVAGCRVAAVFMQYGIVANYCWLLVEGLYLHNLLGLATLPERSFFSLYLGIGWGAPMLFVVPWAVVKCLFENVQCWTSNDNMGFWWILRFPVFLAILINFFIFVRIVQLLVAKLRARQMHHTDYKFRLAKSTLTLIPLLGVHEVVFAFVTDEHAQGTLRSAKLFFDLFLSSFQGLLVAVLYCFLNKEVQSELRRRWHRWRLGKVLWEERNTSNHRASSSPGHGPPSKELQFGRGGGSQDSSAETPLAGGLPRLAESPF

B1: Y-Aib-EGT-αMeF(2F)-TSDY-Aib-I-αMeL-LD-Orn-K((2-[2-(2-Amino-ethoxy)-ethoxy]-acetyl)2-(γ-Glu)-CO-(CH2)10-CH3)AQ-Aib-EFI-(D-Glu)-αMeY-LIEGGPSSGAPPPSK((2-[2-(2-Amin … (peptide)
peptide: YXEGTXTSDYXIXLDXKAQXEFIXXLIEGGPSSGAPPPSK
modifications: Aib2, αMeF(2F)6, Aib11, αMeL13, Orn16, K17(Z1), Aib20, D-Glu24, αMeY25, K40(Z1), C-term NH2; Z1=AEEA2-(γ-Glu)-CO-(CH2)10-CH3
For B1, the Ki with human GIP receptor was 22.8 pM; with human GLP-1 receptor, 137 pM; in the experiment with human glucagon receptor, 2840 pM.

B2: Y-Aib-EGT-αMeF(2F)-TSD-4Pal-Aib-I-αMeL-LD-Orn-K((2-[2-(2-Amino-ethoxy)-ethoxy]-acetyl)2-(γ-Glu)-CO-(CH2)10-CH3)AQ-Aib-EFI-(D-Glu)-αMeY-LIEGGPSSGAPPPSK((2-[2-(2- … (peptide)
peptide: B1 peptide with Y10X
modifications: Aib2, αMeF(2F)6, 4Pal10, Aib11, αMeL13, Orn16, K17(Z1), Aib20, D-Glu24, αMeY25, K40(Z1), C-term NH2; Z1=AEEA2-(γ-Glu)-CO-(CH2)10-CH3
With B2, the Ki worked out at 16.3 pM with human GIP receptor, 168 pM with human GLP-1 receptor and 6280 pM with human glucagon receptor.

B3: Y-Aib-EGT-αMeF(2F)-TSD-4Pal-Aib-I-αMeL-LD-Orn-K((2-[2-(2-Amino-ethoxy)-ethoxy]-acetyl)-(y-Glu)-(10-(4-carboxyphenoxy)decanoyl))AQ-Aib-EFI-(D-Glu)-αMeY-LIEGGPSSG … (peptide)
peptide: B1 peptide with Y10X
modifications: Aib2, αMeF(2F)6, 4Pal10, Aib11, αMeL13, Orn16, K17(Z1), Aib20, D-Glu24, αMeY25, K40(Z1), C-term NH2; Z1=AEEA-(γ-Glu)-(10-(4-carboxyphenoxy)decanoyl)
For B3, the Ki is 53 pM in the experiment with human GIP receptor, 765 pM in the experiment with human GLP-1 receptor and 360000 pM in the experiment with human glucagon receptor.

B4: Y-Aib-EGT-αMeF(2F)-TSD-4Pal-SI-αMeL-LD-Orn-K((2-[2-(2-Amino-ethoxy)-ethoxy]-acetyl)2-(γ-Glu)-CO-(CH2)10-CH3)AQ-Aib-EFI-(D-Glu)-αMeY-LIEGGK((2-[2-(2-Amino-ethoxy … (peptide)
peptide: YXEGTXTSDXSIXLDXKAQXEFIXXLIEGGKSSGAPPPS
modifications: Aib2, αMeF(2F)6, 4Pal10, αMeL13, Orn16, K17(Z1), Aib20, D-Glu24, αMeY25, K31(Z1), C-term NH2; Z1=AEEA2-(γ-Glu)-CO-(CH2)10-CH3
Take B4: the Ki in the experiment with human GIP receptor was found to be 30.9 pM; with human GLP-1 receptor it was 154 pM; with human glucagon receptor, 44800 pM.

B5: Y-Aib-EGT-αMeF(2F)-TSD-4Pal-Aib-I-αMeL-LD-Orn-K((2-[2-(2-Amino-ethoxy)-ethoxy]-acetyl)2-(γ-Glu)-CO-(CH2)10-CH3)AQ-Aib-EFI-(D-Glu)-αMeY-LIK((2-[2-(2-Amino-ethoxy … (peptide)
peptide: B4 peptide with S11X, E28K, K31P
modifications: Aib2, αMeF(2F)6, 4Pal10, Aib11, αMeL13, Orn16, K17(Z1), Aib20, D-Glu24, αMeY25, K28(Z1), C-term NH2; Z1=AEEA2-(γ-Glu)-CO-(CH2)10-CH3
With B5, the inhibitory constant (Ki) with human GIP receptor came out at 19.5 pM; with human GLP-1 receptor, 325 pM; in the experiment with human glucagon receptor, 75500 pM.

B6: Y-Aib-EGT-αMeF(2F)-TSD-4Pal-Aib-I-αMeL-LD-Orn-K((2-[2-(2-Amino-ethoxy)-ethoxy]-acetyl)2-(γ-Glu)-CO-(CH2)10-CH3)AQ-Aib-Orn-FI-(D-Glu)-αMeY-LIK((2-[2-(2-Amino-eth … (peptide)
peptide: B4 peptide with S11X, E21X, E28K, K31P
modifications: Aib2, αMeF(2F)6, 4Pal10, Aib11, αMeL13, Orn16, K17(Z1), Aib20, Orn21, D-Glu24, αMeY25, K28(Z1), C-term NH2; Z1=AEEA2-(γ-Glu)-CO-(CH2)10-CH3
For B6, the results for the Ki with human GIP receptor, with human GLP-1 receptor and with human glucagon receptor were 22.9 pM, 194 pM and 33700 pM, respectively.

B7: Y-Aib-EGT-αMeF(2F)-TSD-4Pal-Aib-I-αMeL-LD-Orn-K((2-[2-(2-Amino-ethoxy)-ethoxy]-acetyl)-(γ-Glu)-(10-(4-carboxyphenoxy)decanoyl))AQ-Aib-EFIe-αMeY-LIK((2-[2-(2-Ami … (peptide)
peptide: B4 peptide with S11X, E28K, K31P
modifications: Aib2, αMeF(2F)6, 4Pal10, Aib11, αMeL13, Orn16, K17(Z1), Aib20, D-Glu24 (printed e), αMeY25, K28(Z1), C-term NH2; Z1=AEEA-(γ-Glu)-(10-(4-carboxyphenoxy)decanoyl)
As for B7, the Ki is 57.8 pM with human GIP receptor, 1220 pM in the experiment with human GLP-1 receptor and 238000 pM with human glucagon receptor.

B8: Y-Aib-EGT-αMeF(2F)-TSD-4Pal-Aib-I-αMeL-LD-Orn-K((2-[2-(2-Amino-ethoxy)-ethoxy]-acetyl)-(γ-Glu)-(10-(4-carboxyphenoxy)decanoyl))AQ-Aib-K((2-[2-(2-Amino-ethoxy)-e … (peptide)
peptide: B4 peptide with S11X, E21K, K31P
modifications: Aib2, αMeF(2F)6, 4Pal10, Aib11, αMeL13, Orn16, K17(Z1), Aib20, K21(Z1), D-Glu24, αMeY25, C-term NH2; Z1=AEEA-(γ-Glu)-(10-(4-carboxyphenoxy)decanoyl)
In the case of B8, the Ki in the experiment with human GIP receptor stood at 46 pM; with human GLP-1 receptor, 673 pM; in the experiment with human glucagon receptor, 118000 pM.

B9: Y-Aib-EGT-αMeF(2F)-TSD-4Pal-Aib-I-αMeL-LD-Orn-K((2-[2-(2-Amino-ethoxy)-ethoxy]-acetyl)-(γ-Glu)-CO-(CH2)12-CO2H)AQ-Aib-K((2-[2-(2-Amino-ethoxy)-ethoxy]-acetyl)-( … (peptide)
peptide: B4 peptide with S11X, E21K, K31P
modifications: Aib2, αMeF(2F)6, 4Pal10, Aib11, αMeL13, Orn16, K17(Z1), Aib20, K21(Z1), D-Glu24, αMeY25, C-term NH2; Z1=AEEA-(γ-Glu)-CO-(CH2)12-CO2H
On to B9, for which the values for the inhibitory constant (Ki) with human GIP receptor, in the experiment with human GLP-1 receptor and with human glucagon receptor were 78.2 pM, 1850 pM and 230000 pM, respectively.

B10: Y-Aib-EGT-αMeF(2F)-TSD-4Pal-Aib-I-αMeL-LD-Orn-K((2-[2-(2-Amino-ethoxy)-ethoxy]-acetyl)3-(γ-Glu)-CO-(CH2)10-CH3)AQ-Aib-K((2-[2-(2-Amino-ethoxy)-ethoxy]-acetyl)3- … (peptide)
peptide: B4 peptide with S11X, E21K, K31P
modifications: Aib2, αMeF(2F)6, 4Pal10, Aib11, αMeL13, Orn16, K17(Z1), Aib20, K21(Z1), D-Glu24, αMeY25, C-term NH2; Z1=AEEA3-(γ-Glu)-CO-(CH2)10-CH3
B10: the Ki in the experiment with human GIP receptor is 21.8 pM; with human GLP-1 receptor, 194 pM; with human glucagon receptor, 12200 pM.

B11: Y-Aib-EGT-αMeF(2F)-TSD-4Pal-Aib-I-αMeL-LD-Orn-K((2-[2-(2-Amino-ethoxy)-ethoxy]-acetyl)2-(γ-Glu)-CO-(CH2)10-CH3)AQ-Aib-TFI-(D-Glu)-αMeY-LIK((2-[2-(2-Amino-ethoxy … (peptide)
peptide: B4 peptide with S11X, E21T, E28K, K31P
modifications: Aib2, αMeF(2F)6, 4Pal10, Aib11, αMeL13, Orn16, K17(Z1), Aib20, D-Glu24, αMeY25, K28(Z1), C-term NH2; Z1=AEEA2-(γ-Glu)-CO-(CH2)10-CH3
notes: T at position 21
For the molecule B11, the Ki with human GIP receptor was determined as 16.6 pM; with human GLP-1 receptor, 265 pM; with human glucagon receptor, 60600 pM.

B12: Y-Aib-EGT-αMeF(2F)-TSD-4Pal-Aib-I-αMeL-LD-Orn-K((2-[2-(2-Amino-ethoxy)-ethoxy]-acetyl)2-(γ-Glu)-CO-(CH2)10-CH3)AQ-Aib-K((2-[2-(2-Amino-ethoxy)-ethoxy]-acetyl)2- … (peptide)
peptide: B4 peptide with S11X, E21K, K31P
modifications: Aib2, αMeF(2F)6, 4Pal10, Aib11, αMeL13, Orn16, K17(Z1), Aib20, K21(Z1), D-Glu24, αMeY25, C-term NH2; Z1=AEEA2-(γ-Glu)-CO-(CH2)10-CH3
As to B12, the inhibition constant Ki with human GIP receptor stood at 16.2 pM; with human GLP-1 receptor, 234 pM; with human glucagon receptor, 2910 pM.

B13: Y-Aib-EGT-aMeF(2F)-TSD-4Pal-Aib-I-aMeL-LD-Orn-K((2-[2-(2-Amino-ethoxy)-ethoxy]-acetyl)2-(γ-Glu)-CO-(CH2)10-CH3)AQ-Aib-GFIe-aMeY-LIK((2-[2-(2-Amino-ethoxy)-ethox … (peptide)
peptide: B4 peptide with S11X, E21G, E28K, K31P
modifications: Aib2, αMeF(2F)6, 4Pal10, Aib11, αMeL13, Orn16, K17(Z1), Aib20, D-Glu24 (printed e), αMeY25, K28(Z1), C-term NH2; Z1=AEEA2-(γ-Glu)-CO-(CH2)10-CH3
notes: G at position 21
On to B13, for which the Ki was found to be 19.7 pM in the experiment with human GIP receptor, 188 pM with human GLP-1 receptor and 135000 pM in the experiment with human glucagon receptor.

B14: Y-Aib-EGT-αMeF(2F)-TSD-4Pal-Aib-I-αMeL-LD-Orn-QAQ-Aib-Orn-FIK((2-[2-(2-Amino-ethoxy)-ethoxy]-acetyl)2-(γ-Glu)-CO-(CH2)12-CO2H)-αMeY-LIK((2-[2-(2-Amino-ethoxy)-e … (peptide)
peptide: YXEGTXTSDXXIXLDXQAQXXFIKXLIKGGPSSGAPPPS
modifications: Aib2, αMeF(2F)6, 4Pal10, Aib11, αMeL13, Orn16, Aib20, Orn21, K24(Z1), αMeY25, K28(Z1), C-term NH2; Z1=AEEA2-(γ-Glu)-CO-(CH2)12-CO2H
Regarding B14, the Ki with human GIP receptor is 27.9 pM; in the experiment with human GLP-1 receptor it was 346 pM; in the experiment with human glucagon receptor, 289000 pM.

B15: Y-Aib-EGT-αMeF(2F)-TSD-4Pal-Aib-G-αMeL-LD-Orn-QAQ-Aib-Orn-FIK((2-[2-(2-Amino-ethoxy)-ethoxy]-acetyl)2-(γ-Glu)-CO-(CH2)12-CO2H)-αMeY-LIK((2-[2-(2-Amino-ethoxy)-e … (peptide)
peptide: B14 peptide with I12G
modifications: Aib2, αMeF(2F)6, 4Pal10, Aib11, αMeL13, Orn16, Aib20, Orn21, K24(Z1), αMeY25, K28(Z1), C-term NH2; Z1=AEEA2-(γ-Glu)-CO-(CH2)12-CO2H
notes: G at position 12
For the molecule B15, the Ki in the experiment with human GIP receptor turned out to be 53.9 pM; in the experiment with human GLP-1 receptor, 386 pM; in the experiment with human glucagon receptor, 592000 pM.

Usually Ki stands for the equilibrium dissociation constant of an inhibitor or competing ligand from its target. A higher Ki goes with lower affinity.
